Changes are numbered by the printed parent chain.
Key:
Assay in all cases: EMSA
Conditions in all cases: pH 7.5, 30 min at 37 C
[1] = biological target: T1, FadR-T230E T230E (Streptococcus suis serotype 2 strain ZY05719) (UniProt A0A0H3MZ02)
T1 sequence: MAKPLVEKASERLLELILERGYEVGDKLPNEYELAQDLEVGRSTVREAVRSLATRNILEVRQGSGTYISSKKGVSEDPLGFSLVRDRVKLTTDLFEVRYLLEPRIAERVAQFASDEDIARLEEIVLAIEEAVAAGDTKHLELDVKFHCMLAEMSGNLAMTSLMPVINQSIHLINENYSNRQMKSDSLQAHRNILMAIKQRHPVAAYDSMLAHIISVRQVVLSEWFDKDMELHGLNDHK

[2] = biological target: T2, FadR (Streptococcus suis serotype 2 strain ZY05719) (UniProt A0A0H3MZ02)
T2 sequence: T1 sequence with E230T

[3] = biological target: T3, FadR-T230A T230A (Streptococcus suis serotype 2 strain ZY05719) (UniProt A0A0H3MZ02)
T3 sequence: T1 sequence with E230A

Measured: binding

CTGTCCTCCTTGTAGATTTATACATGATGGGAAACGAGGAGGACCGTACGCTTTCCTGCCTCTCATTTCCTCTTTACATCCATAGTTTAACAGAGCAAAAAAACAAAAACTTGAAAACGCTCACATTTATTTTGAGAAATTCTTCACATTTTTAACCTTATTTATAAATAATTATCGATTATATCATCTAAATTCTGCATAATTCTTTCCGTTATATCATTATATGAATTTTTATTTTTTTATAAAAAACAGAAACTTCAATGAGTTTCTGTCAAATTTTCTAAGAAATAATCAATATCT (double strand) [adi promoter]
binds: all assays above

Source: publication PMC12463286
